What all share (experiment): cell-based or functional assay
The target in experiment [1] is Human rt-PA (Activase), obtained from Genentech Inc. (human) (UniProt P00750).
In experiment [2] the target is Urokinase (Abbokinase), manufactured by Abbott Laboratories (UniProt P00749).
The target of experiment [3] is Purified human plasmin, obtained from Enzyme Research Laboratories, Inc. (human) (UniProt P00747).

“And” between values parts separate entries of the source, which are not always exact repeats. Equal values may be shown once.

Chain of Human rt-PA (Activase), obtained from Genentech Inc. (human) (P00750 36-562 limits assumed): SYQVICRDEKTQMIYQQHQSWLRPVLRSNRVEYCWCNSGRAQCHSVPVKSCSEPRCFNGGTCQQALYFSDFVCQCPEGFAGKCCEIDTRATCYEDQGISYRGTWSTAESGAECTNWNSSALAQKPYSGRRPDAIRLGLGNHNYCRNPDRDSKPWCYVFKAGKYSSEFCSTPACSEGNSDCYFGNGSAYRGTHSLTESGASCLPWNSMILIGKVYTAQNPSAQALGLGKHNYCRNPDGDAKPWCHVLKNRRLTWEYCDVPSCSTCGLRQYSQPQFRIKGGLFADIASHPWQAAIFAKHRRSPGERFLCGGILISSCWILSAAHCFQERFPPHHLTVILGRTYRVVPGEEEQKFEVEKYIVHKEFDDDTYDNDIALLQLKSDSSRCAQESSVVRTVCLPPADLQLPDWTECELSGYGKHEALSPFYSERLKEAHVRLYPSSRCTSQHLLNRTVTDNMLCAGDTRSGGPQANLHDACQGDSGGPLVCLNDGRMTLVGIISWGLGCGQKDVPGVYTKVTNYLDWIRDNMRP
Chain of Purified human plasmin, obtained from Enzyme Research Laboratories, Inc. (human) (P00747 97-810 limits assumed): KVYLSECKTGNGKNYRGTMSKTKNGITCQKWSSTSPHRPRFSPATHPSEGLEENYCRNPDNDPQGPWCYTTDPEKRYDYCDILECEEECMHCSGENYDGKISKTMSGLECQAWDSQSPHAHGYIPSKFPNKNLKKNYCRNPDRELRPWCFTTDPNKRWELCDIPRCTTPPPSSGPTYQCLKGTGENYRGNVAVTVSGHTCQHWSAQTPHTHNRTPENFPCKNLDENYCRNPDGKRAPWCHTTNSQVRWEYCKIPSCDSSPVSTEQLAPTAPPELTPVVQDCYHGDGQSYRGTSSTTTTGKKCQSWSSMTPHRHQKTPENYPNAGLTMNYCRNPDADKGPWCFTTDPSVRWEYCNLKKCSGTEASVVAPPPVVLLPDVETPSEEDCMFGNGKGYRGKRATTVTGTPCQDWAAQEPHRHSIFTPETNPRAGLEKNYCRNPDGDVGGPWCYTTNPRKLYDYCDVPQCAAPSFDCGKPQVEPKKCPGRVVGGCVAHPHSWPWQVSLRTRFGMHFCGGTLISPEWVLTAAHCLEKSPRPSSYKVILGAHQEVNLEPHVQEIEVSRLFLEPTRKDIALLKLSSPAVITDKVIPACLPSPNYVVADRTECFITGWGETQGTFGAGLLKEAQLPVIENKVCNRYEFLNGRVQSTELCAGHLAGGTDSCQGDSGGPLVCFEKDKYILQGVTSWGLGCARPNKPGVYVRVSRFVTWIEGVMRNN

Regarding “benzyloxycarbonyl-D-seryl-L-allylglycyl-argininal (peptide)”, the IC50 (usually the point on the concentration scale where inhibition reaches its midpoint) in experiment [1] is greater than 2500 nM; in experiment [2], > 100 nM and < 250 nM; in experiment [3], > 250 nM and < 2500 nM.
Regarding “benzyloxycarbonyl-D-seryl-L-3,4-dehydroprolyl-argininal (peptide)”, the IC50 in experiment [1] is greater than 2500 nM; in experiment [2] it was less than 100 nM; in experiment [3], > 100 nM and < 250 nM.
Regarding “benzyloxycarbonyl-D-seryl-pipecolyl-argininal (peptide)”, the IC50 in experiment [1] is greater than 2500 nM; in experiment [2], > 100 nM and < 250 nM.
On to “benzyloxycarbonyl-D-seryl-2-norvalyl-argininal (peptide)”, for which the half-inhibitory concentration (IC50) in experiment [1] was greater than 2500 nM; in experiment [2] it was > 100 nM and < 250 nM.
With “benzyloxycarbonyl-D-seryl-L-propargylglycyl-argininal (peptide)”, the half-inhibitory concentration (IC50) in experiment [1] was greater than 2500 nM; in experiment [2], less than 100 nM; in experiment [3], > 250 nM and < 2500 nM.
Regarding “benzyloxycarbonyl-D-seryl-L-azetidine-2-carbonyl-argininal (peptide)”, the IC50 in experiment [1] is greater than 2500 nM; in experiment [2], less than 100 nM; in experiment [3], > 250 nM and < 2500 nM.
“benzenesulfonyl-D-seryl-azetidyl-argininal, trifluoroacetate salt (peptide)”: the IC50 was less than 100 nM in experiment [2]; > 250 nM and < 2500 nM in experiment [3].
“benzyloxycarbonyl-D-seryl-2-aminobutanoyl-argininal (peptide)”: the values for the IC50 in experiment [1] and in experiment [2] were greater than 2500 nM and less than 100 nM, respectively.
“benzyloxycarbonyl-D-seryl-L-β-cyanoalanine-argininal (peptide)”: the concentration for half-maximal inhibition (IC50) in experiment [1] is greater than 2500 nM; in experiment [2] it was less than 100 nM; in experiment [3] it was > 250 nM and < 2500 nM.

(Values after patent publication US6432922.)
